Test results reported in patent US20190144535A1 (AGENCY FOR SCIENCE TECHNOLOGY AND RESEARCH, published 2019).
Positions count from the first letter of the chain named. Values belong to the binder of their own block, whether it stands above or below them.

How the values were obtained:
human IL-1β [1] = target: T1, human IL-1β (human, UniProt P01584 117-269); experiment: cell-based or functional assay
mouse IL-1β [2] = target: T2, mouse IL-1β (mouse, UniProt P10749 118-269); experiment: cell-based or functional assay
human IL-1β [3] = target: T1, human IL-1β; experiment: ProteOn bioanalyzer (BioRad)
Description: (§1) Matured clones (except P1E8) were tested for affinity towards mouse and human IL-1β using the ProteOn bioanalyzer (BioRad, Hercules, USA).

mouse IL-1β [4] = target: T2, mouse IL-1β; experiment: ProteOn bioanalyzer (BioRad)
Description: as §1

mouse IL-1β [5] = target: T2, mouse IL-1β; experiment: cell-based or functional assay; remark: listed apart in the source
human IL-1β [6] = target: T1, human IL-1β; experiment: cell-based or functional assay; remark: listed apart in the source
mouse IL-1β [7] = target: T2, mouse IL-1β; experiment: ProteOn bioanalyzer (BioRad); end of the range tied to P2D7 by Table 1
Description: as §1

mouse IL-1β [8] = target: T2, mouse IL-1β; experiment: ProteOn bioanalyzer (BioRad); end of the range tied to P1H8 by Table 1
Description: as §1

mouse IL-1β [9] = target: T2, mouse IL-1β; experiment: direct ELISA, OD 460 nm against IgG 2H concentration

B3: Fab clone 2H (Fab, V domains shown)
VH: QVQLQQWGAGLLKPSETLSLTCAVYGGSFSDYYWSWIRQPPGKGLEWIGEIDHSGSTNYNPSLKSRVTISVDTSRNQFSLSLSSVTAADTAVYYCARASPSSGWTLDYWGQGTLVTVSS
VL: QSVLTQPPSVSVSPGQTASITCSGDKLGDKFAFWYQQKPGQSPVLVIYLDNKRPSGIPERFSGSNSGNTATLTISGTQALDEADYYCQAWDSNIEVFGGGTKLTVLG
- IC50 (concentration inhibiting 50% of IL-1β activity), HEK-Blue IL-1β cells, SEAP reporter (human IL-1β [1]): 0.21 nM

B4: P2D8 (antibody, V domains shown)
VH: B3 VH
VL: B3 VL with Q88E, D91A, S92D, N93T, I94Y
notes: also called matured Ig P2D8
- Kd (human IL-1β [3]): 0.00457 nM
- Kd (mouse IL-1β [4]): 0.0166 nM
- EC50, inhibition of mouse IL-1β-induced IL-6 secretion by MRC5 cells (mouse IL-1β [5]): 0.197 nM
- EC50, inhibition of human IL-1β-induced IL-6 secretion by MRC5 cells (human IL-1β [6]): 0.011 nM

B5: P1E8 (antibody, V domains shown)
VH: B3 VH with R75K, S81K
VL: B3 VL with Q88E, S92A, N93A, I94A
- EC50, inhibition of mouse IL-1β-induced IL-6 secretion by MRC5 cells (mouse IL-1β [5]): 0.479 nM
- EC50, inhibition of human IL-1β-induced IL-6 secretion by MRC5 cells (human IL-1β [6]): 0.0453 nM

B6: P2D7 (antibody, V domains shown)
VH: B3 VH
VL: QSVLTQPPSVSVSPGQTASITCSGDKLGDKFAFWYQQKPGQSPVLVIYLDNKRPSGIPERFSGSNSGNTATLTISGTQALDEADYYCYAWADTYEVFGGGTK
notes: claim 45 pairs 17 with 14); also called matured Ig P2D7
- Kd (human IL-1β [3]): 0.0031 nM
- Kd (mouse IL-1β [4]): 0.0109 nM
- EC50, inhibition of mouse IL-1β-induced IL-6 secretion by MRC5 cells (mouse IL-1β [5]): 0.158 nM
- EC50, inhibition of human IL-1β-induced IL-6 secretion by MRC5 cells (human IL-1β [6]): 0.00653 nM
- fold higher affinity compared to IgG 2H (mouse IL-1β [7]): 3 to 13 fold

B7: P1D9 (antibody, V domains shown)
VH: B3 VH
VL: B3 VL with Q88Y, S92N, N93A, I94Y
notes: also called matured Ig P1D9
- Kd (human IL-1β [3]): 0.00673 nM
- Kd (mouse IL-1β [4]): 0.0236 nM
- EC50, inhibition of mouse IL-1β-induced IL-6 secretion by MRC5 cells (mouse IL-1β [5]): 0.241 nM
- EC50, inhibition of human IL-1β-induced IL-6 secretion by MRC5 cells (human IL-1β [6]): 0.0207 nM

B8: P1H8 (antibody, V domains shown)
VH: B3 VH
VL: B3 VL with D91A, S92D, N93S, I94F
notes: also called matured Ig P1H8
- Kd (human IL-1β [3]): 0.0101 nM
- Kd (mouse IL-1β [4]): 0.0489 nM
- EC50, inhibition of mouse IL-1β-induced IL-6 secretion by MRC5 cells (mouse IL-1β [5]): 0.623 nM
- EC50, inhibition of human IL-1β-induced IL-6 secretion by MRC5 cells (human IL-1β [6]): 0.0215 nM
- fold higher affinity compared to IgG 2H (mouse IL-1β [8]): 3 to 13 fold

Further lines, results first:

- IC50 (concentration inhibiting 50% of IL-1β activity), HEK-Blue IL-1β cells, SEAP reporter (human IL-1β [1]): 1.31 nM
B1: Fab clone 1H (Fab, V domains shown)
VH: EVQLVQSGAEVKKPGASVKVSCKASGYTFTSYYMHWVRQAPGQGLEWMGLVDPEDGETIYAEKFQGRVTITADTSTDTAYMELSSLRSEDTAVYYCARVEWVAGTEGWGYYFDYWGQGTLVTVSS
VL: NFMLTQPHSVSESPGKTVTIPCTASSGSIANNFVQWYQQRPGSAPTTVIYEDSQRPSGVPDRVSGSIDSSSNSASLTISGLKTEDEADYYCQSYDSANDRVTFGGGTKLIVLG

- inhibition potency (EC50), human IL-1β induced IL-6 production in MRC5 cells (human IL-1β [1]): 3.92 nM
- potency (EC50), neutralization in HEK-Blue cells stimulated with 4 pM human IL-1β (human IL-1β [1]): 2.6 nM
- potency (EC50), neutralization in HEK-Blue cells stimulated with mouse IL-1β (mouse IL-1β [2]): 11.5 nM
B2: IgG1 1H (antibody, V domains shown)
VH: B1 VH
VL: B1 VL

- inhibition potency (EC50), human IL-1β induced IL-6 production in MRC5 cells (human IL-1β [1]): 0.35 nM
- potency (EC50), neutralization in HEK-Blue cells stimulated with 4 pM human IL-1β (human IL-1β [1]): 0.17 nM
- potency (EC50), neutralization in HEK-Blue cells stimulated with mouse IL-1β (mouse IL-1β [2]): 1.5 nM
- Kd (human IL-1β [3]): 0.0783 nM
- Kd (mouse IL-1β [4]): 0.142 nM
- EC50, inhibition of mouse IL-1β-induced IL-6 secretion by MRC5 cells (mouse IL-1β [5]): 1.25 nM
- EC50, inhibition of human IL-1β-induced IL-6 secretion by MRC5 cells (human IL-1β [6]): 0.148 nM
- EC50 (read off the curve) (mouse IL-1β [9]): ~0.3 nM
B9: IgG1 2H (antibody, V domains shown)
VH: B3 VH
VL: B3 VL
notes: also called IgG 2H; IgG clone 2H
